The numbers were not newly measured in paper PMC7192543, which cites them from elsewhere.

One series deals with OmpR (Escherichia coli) (UniProt P0AA16). Briefly: fluorescence anisotropy.
Series [1] addresses OmpR~P (Escherichia coli) (UniProt P0AA16).

As usually defined, the Kd is a measure of binding affinity in units of concentration. As for “EnvZ cytoplasmic domain (EnvZc) (from UniProt P0AEJ4)”, in the series with OmpR (Escherichia coli), the Kd was 425 nM.

As to EnvZ (from UniProt P0AEJ4), the Kd in series [1] was more than 5 µM.
